Measured values published in paper PMC10786891, “Massively parallel profiling of RNA-targeting CRISPR-Cas13d”.

T1: EsCas13d, nuclease-dead (Eubacterium siraeum, UniProt B0MS50, R295A;H300A;R849A;H854A)
T1 sequence: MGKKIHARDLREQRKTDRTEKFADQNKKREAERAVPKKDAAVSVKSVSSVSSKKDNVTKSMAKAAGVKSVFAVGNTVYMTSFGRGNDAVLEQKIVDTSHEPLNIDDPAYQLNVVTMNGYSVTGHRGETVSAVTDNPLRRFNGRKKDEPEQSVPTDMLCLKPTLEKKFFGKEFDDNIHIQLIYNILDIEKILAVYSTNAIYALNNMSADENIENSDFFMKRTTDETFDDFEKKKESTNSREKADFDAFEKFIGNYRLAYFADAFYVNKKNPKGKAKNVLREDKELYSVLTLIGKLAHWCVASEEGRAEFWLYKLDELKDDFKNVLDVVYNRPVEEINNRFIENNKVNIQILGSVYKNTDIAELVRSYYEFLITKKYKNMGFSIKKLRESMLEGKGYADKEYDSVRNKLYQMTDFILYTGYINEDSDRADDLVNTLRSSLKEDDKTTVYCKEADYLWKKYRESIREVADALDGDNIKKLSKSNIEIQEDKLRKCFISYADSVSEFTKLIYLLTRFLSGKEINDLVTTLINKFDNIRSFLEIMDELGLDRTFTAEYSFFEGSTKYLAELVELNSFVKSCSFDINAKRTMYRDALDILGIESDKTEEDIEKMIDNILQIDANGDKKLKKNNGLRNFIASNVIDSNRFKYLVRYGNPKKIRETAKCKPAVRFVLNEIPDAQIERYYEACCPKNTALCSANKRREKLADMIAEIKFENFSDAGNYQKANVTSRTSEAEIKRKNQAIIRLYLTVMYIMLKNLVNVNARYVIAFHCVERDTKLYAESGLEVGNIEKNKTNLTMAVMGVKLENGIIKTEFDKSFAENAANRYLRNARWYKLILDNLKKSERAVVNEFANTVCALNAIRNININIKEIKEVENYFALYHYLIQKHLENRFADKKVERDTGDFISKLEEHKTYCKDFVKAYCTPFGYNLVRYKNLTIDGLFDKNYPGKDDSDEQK

B1: target 3 insG 3' of 5 (mixed)
RNA 1: CACCCGUGCAAAAUUGCAGGGGUCUAAAACGACCUGAAUAUUUCAGAUCAAA
RNA 2: GGGAAUGGAUCCACAUCUACGAAUUCGUUUUUGAUCUGAAAUAUUCAGGGUCUGCAGAUCGGAAGAGCACACGU
B2: target 3 insU 3' of 22,insG 3' of 2 (mixed)
RNA 1: CACCCGUGCAAAAUUGCAGGGGUCUAAAACGACCUGAAUAUUUCAGAUCAAA
RNA 2: GGGAAUGGAUCCACAUCUACGAAUUCGUUUUUUGAUCUGAAAUAUUCAGGUGCUGCAGAUCGGAAGAGCACACGU
B3: target 3 insG 3' of 7,insU 3' of 3 (mixed)
RNA 1: CACCCGUGCAAAAUUGCAGGGGUCUAAAACGACCUGAAUAUUUCAGAUCAAA
RNA 2: GGGAAUGGAUCCACAUCUACGAAUUCGUUUUUGAUCUGAAAUAUUGCAGGUUCUGCAGAUCGGAAGAGCACACGU
B4: target 3 insA 3' of 14,insA 3' of 2 (mixed)
RNA 1: CACCCGUGCAAAAUUGCAGGGGUCUAAAACGACCUGAAUAUUUCAGAUCAAA
RNA 2: GGGAAUGGAUCCACAUCUACGAAUUCGUUUUUGAUCUGAAAAUAUUCAGGUACUGCAGAUCGGAAGAGCACACGU
B5: target 3 insC 3' of 4,insA 3' of 2 (mixed)
RNA 1: CACCCGUGCAAAAUUGCAGGGGUCUAAAACGACCUGAAUAUUUCAGAUCAAA
RNA 2: GGGAAUGGAUCCACAUCUACGAAUUCGUUUUUGAUCUGAAAUAUUCAGCGUACUGCAGAUCGGAAGAGCACACGU
B6: target 3 U7C,U22C (mixed)
RNA 1: CACCCGUGCAAAAUUGCAGGGGUCUAAAACGACCUGAAUAUUUCAGAUCAAA
RNA 2: GGGAAUGGAUCCACAUCUACGAAUUCGUUCUUGAUCUGAAAUAUCCAGGUCUGCAGAUCGGAAGAGCACACGU
B7: target 3 del1,del6 (mixed)
RNA 1: CACCCGUGCAAAAUUGCAGGGGUCUAAAACGACCUGAAUAUUUCAGAUCAAA
RNA 2: GGGAAUGGAUCCACAUCUACGAAUUCGUUUUUGAUCUGAAAUAUUAGGUUGCAGAUCGGAAGAGCACACGU
B8: target 3 insA 3' of 22,insU 3' of 19 (mixed)
RNA 1: CACCCGUGCAAAAUUGCAGGGGUCUAAAACGACCUGAAUAUUUCAGAUCAAA
RNA 2: GGGAAUGGAUCCACAUCUACGAAUUCGUUUAUUGUAUCUGAAAUAUUCAGGUCUGCAGAUCGGAAGAGCACACGU
B9: target 3 U7A,U8G (mixed)
RNA 1: CACCCGUGCAAAAUUGCAGGGGUCUAAAACGACCUGAAUAUUUCAGAUCAAA
RNA 2: GGGAAUGGAUCCACAUCUACGAAUUCGUUUUUGAUCUGAAAUAGACAGGUCUGCAGAUCGGAAGAGCACACGU
B10: target 3 U2A,C16U (mixed)
RNA 1: CACCCGUGCAAAAUUGCAGGGGUCUAAAACGACCUGAAUAUUUCAGAUCAAA
RNA 2: GGGAAUGGAUCCACAUCUACGAAUUCGUUUUUGAUUUGAAAUAUUCAGGACUGCAGAUCGGAAGAGCACACGU
B11: target 3 A11C,A18G (mixed)
RNA 1: CACCCGUGCAAAAUUGCAGGGGUCUAAAACGACCUGAAUAUUUCAGAUCAAA
RNA 2: GGGAAUGGAUCCACAUCUACGAAUUCGUUUUUGGUCUGAACUAUUCAGGUCUGCAGAUCGGAAGAGCACACGU
B12: target 3 insC 3' of 9,insA 3' of 6 (mixed)
RNA 1: CACCCGUGCAAAAUUGCAGGGGUCUAAAACGACCUGAAUAUUUCAGAUCAAA
RNA 2: GGGAAUGGAUCCACAUCUACGAAUUCGUUUUUGAUCUGAAAUACUUCAAGGUCUGCAGAUCGGAAGAGCACACGU
B13: target 3 U2A,A11G (mixed)
RNA 1: CACCCGUGCAAAAUUGCAGGGGUCUAAAACGACCUGAAUAUUUCAGAUCAAA
RNA 2: GGGAAUGGAUCCACAUCUACGAAUUCGUUUUUGAUCUGAAGUAUUCAGGACUGCAGAUCGGAAGAGCACACGU
B14: target 3 insU 3' of 9,insA 3' of 8 (mixed)
RNA 1: CACCCGUGCAAAAUUGCAGGGGUCUAAAACGACCUGAAUAUUUCAGAUCAAA
RNA 2: GGGAAUGGAUCCACAUCUACGAAUUCGUUUUUGAUCUGAAAUAUUAUCAGGUCUGCAGAUCGGAAGAGCACACGU
B15: target 3 insU 3' of 11,insG 3' of 6 (mixed)
RNA 1: CACCCGUGCAAAAUUGCAGGGGUCUAAAACGACCUGAAUAUUUCAGAUCAAA
RNA 2: GGGAAUGGAUCCACAUCUACGAAUUCGUUUUUGAUCUGAAAUUAUUCGAGGUCUGCAGAUCGGAAGAGCACACGU
B16: target 3 insC 3' of 5,insC 3' of 5 (mixed)
RNA 1: CACCCGUGCAAAAUUGCAGGGGUCUAAAACGACCUGAAUAUUUCAGAUCAAA
RNA 2: GGGAAUGGAUCCACAUCUACGAAUUCGUUUUUGAUCUGAAAUAUUCACCGGUCUGCAGAUCGGAAGAGCACACGU
B17: target 3 insA 3' of 22,insC 3' of 20 (mixed)
RNA 1: CACCCGUGCAAAAUUGCAGGGGUCUAAAACGACCUGAAUAUUUCAGAUCAAA
RNA 2: GGGAAUGGAUCCACAUCUACGAAUUCGUUUAUUCGAUCUGAAAUAUUCAGGUCUGCAGAUCGGAAGAGCACACGU
B18: target 3 G19U (mixed)
RNA 1: CACCCGUGCAAAAUUGCAGGGGUCUAAAACGACCUGAAUAUUUCAGAUCAAA
RNA 2: GGGAAUGGAUCCACAUCUACGAAUUCGUUUUUUAUCUGAAAUAUUCAGGUCUGCAGAUCGGAAGAGCACACGU
B19: target 3 U8C,U22A (mixed)
RNA 1: CACCCGUGCAAAAUUGCAGGGGUCUAAAACGACCUGAAUAUUUCAGAUCAAA
RNA 2: GGGAAUGGAUCCACAUCUACGAAUUCGUUAUUGAUCUGAAAUACUCAGGUCUGCAGAUCGGAAGAGCACACGU
B20: target 3 insC 3' of 13,insC 3' of 3 (mixed)
RNA 1: CACCCGUGCAAAAUUGCAGGGGUCUAAAACGACCUGAAUAUUUCAGAUCAAA
RNA 2: GGGAAUGGAUCCACAUCUACGAAUUCGUUUUUGAUCUGACAAUAUUCAGGCUCUGCAGAUCGGAAGAGCACACGU
B21: target 3 C1A,U8G (mixed)
RNA 1: CACCCGUGCAAAAUUGCAGGGGUCUAAAACGACCUGAAUAUUUCAGAUCAAA
RNA 2: GGGAAUGGAUCCACAUCUACGAAUUCGUUUUUGAUCUGAAAUAGUCAGGUAUGCAGAUCGGAAGAGCACACGU
B22: target 3 A5C,C6A (mixed)
RNA 1: CACCCGUGCAAAAUUGCAGGGGUCUAAAACGACCUGAAUAUUUCAGAUCAAA
RNA 2: GGGAAUGGAUCCACAUCUACGAAUUCGUUUUUGAUCUGAAAUAUUACGGUCUGCAGAUCGGAAGAGCACACGU
B23: target 3 C6U,A12U (mixed)
RNA 1: CACCCGUGCAAAAUUGCAGGGGUCUAAAACGACCUGAAUAUUUCAGAUCAAA
RNA 2: GGGAAUGGAUCCACAUCUACGAAUUCGUUUUUGAUCUGAUAUAUUUAGGUCUGCAGAUCGGAAGAGCACACGU
B24: target 3 del2,del6 (mixed)
RNA 1: CACCCGUGCAAAAUUGCAGGGGUCUAAAACGACCUGAAUAUUUCAGAUCAAA
RNA 2: GGGAAUGGAUCCACAUCUACGAAUUCGUUUUUGAUCUGAAAUAUUAGGCUGCAGAUCGGAAGAGCACACGU
B25: target 3 insG 3' of 7,insU 3' of 4 (mixed)
RNA 1: CACCCGUGCAAAAUUGCAGGGGUCUAAAACGACCUGAAUAUUUCAGAUCAAA
RNA 2: GGGAAUGGAUCCACAUCUACGAAUUCGUUUUUGAUCUGAAAUAUUGCAGUGUCUGCAGAUCGGAAGAGCACACGU
B26: target 1 insA 3' of 5,insC 3' of 1 (mixed)
RNA 1: CACCCGUGCAAAAAUGCAGGGGUCUAAAACUGAGCGGAUAACCUCUCUAUGG
RNA 2: GGGAAUGGAUCCACAUCUACGAAUUCGUACCAUAGAGAGGUUAUCCGACUCACCCGAGAUCGGAAGAGCACACGU
B27: target 1 G5U,U10C (mixed)
RNA 1: CACCCGUGCAAAAAUGCAGGGGUCUAAAACUGAGCGGAUAACCUCUCUAUGG
RNA 2: GGGAAUGGAUCCACAUCUACGAAUUCGUACCAUAGAGAGGUCAUCCUCUCACCGAGAUCGGAAGAGCACACGU
B28: target 1 insG 3' of 21,insU 3' of 1 (mixed)
RNA 1: CACCCGUGCAAAAAUGCAGGGGUCUAAAACUGAGCGGAUAACCUCUCUAUGG
RNA 2: GGGAAUGGAUCCACAUCUACGAAUUCGUACCGAUAGAGAGGUUAUCCGCUCAUCCGAGAUCGGAAGAGCACACGU

Target: T1, EsCas13d, nuclease-dead
Test: crRNA (strand 1, pre-loaded); Mg2+; 40 mM Tris-HCl pH 7.5, 150 mM NaCl, 6 mM MgCl2, 1 mM DTT, 0.1% Tween-20, 0.2 mg/ml BSA; 25 C; 10 min per concentration, then washed
Conditions: tags: His6-TwinStrep-SUMO cleaved; N-terminal SNAP kept (SNAP-Surface 488); label: 3' end held by stalled T7 RNA polymerase

Binder | Kd [nM]
B1 | 19.9 ± 1.95
B2 | 32.2 ± 3.15
B3 | 47.5 ± 10.5
B4 | 64 ± 10
B5 | 23.9 ± 3.2
B6 | 70.5 ± 13.5
B7 | ~56
B8 | 65 ± 15
B9 | 84 ± 24
B10 | 45.2 ± 8.25
B11 | 73 ± 22.5
B12 | 76.5 ± 16
B13 | 73.5 ± 24
B14 | 71.5 ± 21.5
B15 | 87 ± 14.5
B16 | 11.1 ± 0.7
B17 | 86 ± 34.5
B18 | 83 ± 9.5
B19 | 42.3 ± 4.95
B20 | 81 ± 22
B21 | 74 ± 16
B22 | 49 ± 5
B23 | 88 ± 21.5
B24 | 18 ± 1.85
B25 | 32 ± 6.1
B26 | 8.4 ± 1.6
B27 | 95 ± 19
B28 | 71 ± 12
